*1 amine or outer side, *2 acyl side, *3 side chain or, on linkers, in order; H or OH if unused. Bridges are numbered along the chain shown (N, C = ends). [ ]: non-standard residue; d: D form. The star is where a group is joined. C20 diacid = O=C(O)CCCCCCCCCCCCCCCCCCC(=O)*; γGlu = O=C(O)[C@H](CCC(=O)[*:2])N[*:1]; Hyp = O=C(O)[C@@H]1C[C@@H](O)CN1; NMeI = CC[C@H](C)[C@H](NC)C(=O)O; Sar = CNCC(=O)O
T1: human amylin receptor 3 (hAMYR3), hCTR2 co-expressed with human receptor activity modifying protein 3 (hRAMP3) (human, UniProt P30988 25-474; O60896 24-148)
T1 sequence (looked up) 1: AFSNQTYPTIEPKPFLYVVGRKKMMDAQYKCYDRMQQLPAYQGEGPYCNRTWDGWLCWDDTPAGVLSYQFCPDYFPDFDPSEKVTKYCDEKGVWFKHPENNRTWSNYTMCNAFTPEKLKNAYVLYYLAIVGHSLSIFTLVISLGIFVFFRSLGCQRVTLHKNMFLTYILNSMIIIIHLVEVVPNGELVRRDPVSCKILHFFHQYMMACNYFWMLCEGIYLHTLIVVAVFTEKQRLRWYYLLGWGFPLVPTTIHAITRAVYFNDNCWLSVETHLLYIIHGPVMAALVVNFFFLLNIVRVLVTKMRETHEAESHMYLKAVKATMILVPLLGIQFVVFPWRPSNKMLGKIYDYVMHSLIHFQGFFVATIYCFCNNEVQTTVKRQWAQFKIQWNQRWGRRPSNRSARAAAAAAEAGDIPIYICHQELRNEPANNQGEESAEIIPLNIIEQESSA
T1 sequence (looked up) 2: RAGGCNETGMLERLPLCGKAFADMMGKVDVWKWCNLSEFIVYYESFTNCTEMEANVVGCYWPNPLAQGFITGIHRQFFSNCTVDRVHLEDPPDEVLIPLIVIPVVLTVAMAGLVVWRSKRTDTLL

B1: [19CD]-isoGlu-R-C( )-NTAT-C( )-ATQRLAHFLHRVSF-Gly(Me)-A-Ile(Me)-LSSTEVGSETP-NH2 (Compd. 21) (peptide)
peptide: {C20 diacid-γGlu}-RCNTATCATQRLAHFLHRVSF[Sar]A[NMeI]LSSTEVGSETP-NH2
modifications: disulfide 2-7
SMILES: CC[C@H](C)[C@@H](C(=O)N[C@@H](CC(C)C)C(=O)N[C@@H](CO)C(=O)N[C@@H](CO)C(=O)N[C@H](C(=O)N[C@@H](CCC(=O)O)C(=O)N[C@H](C(=O)NCC(=O)N[C@@H](CO)C(=O)N[C@@H](CCC(=O)O)C(=O)N[C@H](C(=O)N1CCC[C@H]1C(N)=O)[C@@H](C)O)C(C)C)[C@@H](C)O)N(C)C(=O)[C@H](C)NC(=O)CN(C)C(=O)[C@H](Cc1ccccc1)NC(=O)[C@H](CO)NC(=O)[C@@H](NC(=O)[C@H](CCCNC(=N)N)NC(=O)[C@H](Cc1c[nH]cn1)NC(=O)[C@H](CC(C)C)NC(=O)[C@H](Cc1ccccc1)NC(=O)[C@H](Cc1c[nH]cn1)NC(=O)[C@H](C)NC(=O)[C@H](CC(C)C)NC(=O)[C@H](CCCNC(=N)N)NC(=O)[C@H](CCC(N)=O)NC(=O)[C@@H](NC(=O)[C@H](C)NC(=O)[C@@H]1CSSC[C@H](NC(=O)[C@H](CCCNC(=N)N)NC(=O)CC[C@H](NC(=O)CCCCCCCCCCCCCCCCCCC(=O)O)C(=O)O)C(=O)N[C@@H](CC(N)=O)C(=O)N[C@@H]([C@@H](C)O)C(=O)N[C@@H](C)C(=O)N[C@@H]([C@@H](C)O)C(=O)N1)[C@@H](C)O)C(C)C
B2: [19CD]-isoGlu-R-C( )-GTAT-C( )-ATERLANFLVRSSF-Gly(Me)-A-Ile(Me)-LSSTEVGSNT-Hyp-NH2 (Compd. 17) (peptide)
peptide: {C20 diacid-γGlu}-RCGTATCATERLANFLVRSSF[Sar]A[NMeI]LSSTEVGSNT[Hyp]-NH2
modifications: disulfide 2-7
SMILES: CC[C@H](C)[C@@H](C(=O)N[C@@H](CC(C)C)C(=O)N[C@@H](CO)C(=O)N[C@@H](CO)C(=O)N[C@H](C(=O)N[C@@H](CCC(=O)O)C(=O)N[C@H](C(=O)NCC(=O)N[C@@H](CO)C(=O)N[C@@H](CC(N)=O)C(=O)N[C@H](C(=O)N1C[C@H](O)C[C@H]1C(N)=O)[C@@H](C)O)C(C)C)[C@@H](C)O)N(C)C(=O)[C@H](C)NC(=O)CN(C)C(=O)[C@H](Cc1ccccc1)NC(=O)[C@H](CO)NC(=O)[C@H](CO)NC(=O)[C@H](CCCNC(=N)N)NC(=O)[C@@H](NC(=O)[C@H](CC(C)C)NC(=O)[C@H](Cc1ccccc1)NC(=O)[C@H](CC(N)=O)NC(=O)[C@H](C)NC(=O)[C@H](CC(C)C)NC(=O)[C@H](CCCNC(=N)N)NC(=O)[C@H](CCC(=O)O)NC(=O)[C@@H](NC(=O)[C@H](C)NC(=O)[C@@H]1CSSC[C@H](NC(=O)[C@H](CCCNC(=N)N)NC(=O)CC[C@H](NC(=O)CCCCCCCCCCCCCCCCCCC(=O)O)C(=O)O)C(=O)NCC(=O)N[C@@H]([C@@H](C)O)C(=O)N[C@@H](C)C(=O)N[C@@H]([C@@H](C)O)C(=O)N1)[C@@H](C)O)C(C)C
B3: [19CD]-isoGlu-R-C( )-NTAT-C( )-ATQRLAHFLHRSVF-Gly(Me)-A-Ile(Me)-LSSTEVGSETP-NH2 (Compd. 20) (peptide)
peptide: {C20 diacid-γGlu}-RCNTATCATQRLAHFLHRSVF[Sar]A[NMeI]LSSTEVGSETP-NH2
modifications: disulfide 2-7
SMILES: CC[C@H](C)[C@@H](C(=O)N[C@@H](CC(C)C)C(=O)N[C@@H](CO)C(=O)N[C@@H](CO)C(=O)N[C@H](C(=O)N[C@@H](CCC(=O)O)C(=O)N[C@H](C(=O)NCC(=O)N[C@@H](CO)C(=O)N[C@@H](CCC(=O)O)C(=O)N[C@H](C(=O)N1CCC[C@H]1C(N)=O)[C@@H](C)O)C(C)C)[C@@H](C)O)N(C)C(=O)[C@H](C)NC(=O)CN(C)C(=O)[C@H](Cc1ccccc1)NC(=O)[C@@H](NC(=O)[C@H](CO)NC(=O)[C@H](CCCNC(=N)N)NC(=O)[C@H](Cc1c[nH]cn1)NC(=O)[C@H](CC(C)C)NC(=O)[C@H](Cc1ccccc1)NC(=O)[C@H](Cc1c[nH]cn1)NC(=O)[C@H](C)NC(=O)[C@H](CC(C)C)NC(=O)[C@H](CCCNC(=N)N)NC(=O)[C@H](CCC(N)=O)NC(=O)[C@@H](NC(=O)[C@H](C)NC(=O)[C@@H]1CSSC[C@H](NC(=O)[C@H](CCCNC(=N)N)NC(=O)CC[C@H](NC(=O)CCCCCCCCCCCCCCCCCCC(=O)O)C(=O)O)C(=O)N[C@@H](CC(N)=O)C(=O)N[C@@H]([C@@H](C)O)C(=O)N[C@@H](C)C(=O)N[C@@H]([C@@H](C)O)C(=O)N1)[C@@H](C)O)C(C)C
B4: [19CD]-isoGlu-R-C( )-GTAT-C( )-ATERLAHFLTRSSF-Gly(Me)-A-Ile(Me)-LSSTEVGSNT-Hyp-NH2 (Compd. 18) (peptide)
peptide: {C20 diacid}-[γGlu]RCGTATCATERLAHFLTRSSF[Sar]A[NMeI]LSSTEVGSNT[Hyp]-NH2
modifications: disulfide 3-8
SMILES: CC[C@H](C)[C@@H](C(=O)N[C@@H](CC(C)C)C(=O)N[C@@H](CO)C(=O)N[C@@H](CO)C(=O)N[C@H](C(=O)N[C@@H](CCC(=O)O)C(=O)N[C@H](C(=O)NCC(=O)N[C@@H](CO)C(=O)N[C@@H](CC(N)=O)C(=O)N[C@H](C(=O)N1C[C@H](O)C[C@H]1C(N)=O)[C@@H](C)O)C(C)C)[C@@H](C)O)N(C)C(=O)[C@H](C)NC(=O)CN(C)C(=O)[C@H](Cc1ccccc1)NC(=O)[C@H](CO)NC(=O)[C@H](CO)NC(=O)[C@H](CCCNC(=N)N)NC(=O)[C@@H](NC(=O)[C@H](CC(C)C)NC(=O)[C@H](Cc1ccccc1)NC(=O)[C@H](Cc1c[nH]cn1)NC(=O)[C@H](C)NC(=O)[C@H](CC(C)C)NC(=O)[C@H](CCCNC(=N)N)NC(=O)[C@H](CCC(=O)O)NC(=O)[C@@H](NC(=O)[C@H](C)NC(=O)[C@@H]1CSSC[C@H](NC(=O)[C@H](CCCNC(=N)N)NC(=O)CC[C@H](NC(=O)CCCCCCCCCCCCCCCCCCC(=O)O)C(=O)O)C(=O)NCC(=O)N[C@@H]([C@@H](C)O)C(=O)N[C@@H](C)C(=O)N[C@@H]([C@@H](C)O)C(=O)N1)[C@@H](C)O)[C@@H](C)O
B5: [19CD]-isoGlu-R-C( )-GTAT-C( )-ATERLAHFLKRSSF-Gly(Me)-A-Ile(Me)-LSSTEVGSNT-Hyp-NH2 (Compd. 19) (peptide)
peptide: {C20 diacid}-[γGlu]RCGTATCATERLAHFLKRSSF[Sar]A[NMeI]LSSTEVGSNT[Hyp]-NH2
modifications: disulfide 3-8
SMILES: CC[C@H](C)[C@@H](C(=O)N[C@@H](CC(C)C)C(=O)N[C@@H](CO)C(=O)N[C@@H](CO)C(=O)N[C@H](C(=O)N[C@@H](CCC(=O)O)C(=O)N[C@H](C(=O)NCC(=O)N[C@@H](CO)C(=O)N[C@@H](CC(N)=O)C(=O)N[C@H](C(=O)N1C[C@H](O)C[C@H]1C(N)=O)[C@@H](C)O)C(C)C)[C@@H](C)O)N(C)C(=O)[C@H](C)NC(=O)CN(C)C(=O)[C@H](Cc1ccccc1)NC(=O)[C@H](CO)NC(=O)[C@H](CO)NC(=O)[C@H](CCCNC(=N)N)NC(=O)[C@H](CCCCN)NC(=O)[C@H](CC(C)C)NC(=O)[C@H](Cc1ccccc1)NC(=O)[C@H](Cc1c[nH]cn1)NC(=O)[C@H](C)NC(=O)[C@H](CC(C)C)NC(=O)[C@H](CCCNC(=N)N)NC(=O)[C@H](CCC(=O)O)NC(=O)[C@@H](NC(=O)[C@H](C)NC(=O)[C@@H]1CSSC[C@H](NC(=O)[C@H](CCCNC(=N)N)NC(=O)CC[C@H](NC(=O)CCCCCCCCCCCCCCCCCCC(=O)O)C(=O)O)C(=O)NCC(=O)N[C@@H]([C@@H](C)O)C(=O)N[C@@H](C)C(=O)N[C@@H]([C@@H](C)O)C(=O)N1)[C@@H](C)O

Molecular target: T1, human amylin receptor 3 (hAMYR3), hCTR2 …
Test: cell-based or functional assay

Row | Binder | hAMYR3 EC50 (nM); cAMP induction [nM]
1 | {C20 diacid-γGlu}-RCNTATCATQRLAHFLHRSSF[Sar]A[NMeI]LSSTEVGSETP-NH2 (disulfide 2-7) [[19CD]-isoGlu-R-C( )-NTAT-C( )-ATQRLAHFLHRSSF-Gly(Me)-A-Ile(Me)-LSSTEVGSETP-NH2 (Compd. 2)] | 0.12
2 | B1 | 0.23
3 | B2 | 0.61
4 | B3 | 0.33
5 | B4 | 0.41
6 | B5 | 0.28
